According to US10499655B2, “Reagents and methods for inhibiting or disrupting biofilm” (priority 2015, dated 2019):

How the values were obtained:
Pseudomonas aeruginosa [1] = assay: MIC test strips on bacteria dispersed from a biofilm by PsIG versus planktonic bacteria; assay type: cell-based; conditions: 24-hour biofilm treated with PsIG 1 hour; MIC read after 16 hours at 37 degrees centigrade
Experimental: Planktonic Pseudomonas aeruginosa may be cultured for 24 hours with shocking in LBNS medium, and 0.2 ml of such culture may be used as control. As shown in FIGS. 8(a) and 8(c), a control group have shown measurement of MIC values of TOB, CIP by a planktonic bacteria. FIGS. 8(b) and 8(d) have shown measurement of MIC values of TOB, CIP by bacteria cells dispersed from the biofilm after the treatment of the PsIG protein.

[2] = test system: biofilm of Pseudomonas aeruginosa; assay: Inhibition of biofilm formation, crystal violet staining, 96-well plate; assay type: cell-based
Description: (§1) The biomass of the biofilm has been detected by a crystal violet staining method. The method including: discarding cultures (bacteria that are not attached on wells.) in the wells, and washing three times. Then, the biofilm may be stained with 0.1% crystal violet, and washed three times, then the crystal violet combined in the biofilm may be dissolved with 30% acetic acid, and the value of OD560 thereof (for example, the concentration of the crystal violet) may be measured by a spectrophotometer to measure the biomass of the biofilm was measured. PAO1-derived PsI polysaccharide negative strain (PAO1, A psi) may be used as a negative control, and PAO1-derived PsI polysaccharide inducible strain (PAO1, PBAD-psI) (arabinose used as an inducer) may be used as positive control.
A fresh single colony of Pseudomonas aeruginosa on the LBNS plate may be inoculated in LBNS liquid medium, carried out shake culture at 200 rpm at 37 degrees centigrade for 12 hours, and then inoculated in Jensen's medium with 1% inoculum dose, at the same time, different concentrations of PsIG protein may be added. After static culture in a 96-well plate at 30 degrees centigrade for 24 hours, liquid cultures were discarded and the biofilm may be stained with the crystal violet, and biomass of the biofilm was detected, in which specific operations may refer to the steps in Example 1. […]

[3] = test system: formed biofilm of Pseudomonas aeruginosa; assay: Disruption of formed biofilm, crystal violet staining; assay type: cell-based
Description: as §1
A fresh single colony of Pseudomonas aeruginosa on the LBNS plate may be inoculated in LBNS liquid medium, carried out shake culture at 200 rpm at 37 degrees centigrade for 12 hours, and then inoculated in Jensen's media with 1% inoculum dose, with static culture in a 96-well plate at 30 degrees centigrade for 24 hours. Cultures may be discarded and the biofilm (surface-attached bacteria) was washed with 0.8% physiological saline for three times. 100 μl Jensen's media containing 1 nM PsIG may be added into wells and the biofilm treated for 5 or 30 minutes. Then, biomass of the treated biofilm may be detected by the crystal violet staining method, in which specific operation steps of the crystal violet staining method may refer to Example 2.
At the same time, Jensen's media without addition of PsIG may be used as a control group.
A fresh single colony of Pseudomonas aeruginosa on the LBNS plate may be inoculated in LBNS liquid medium, carried out shake culture at 200 rpm at 37 degrees centigrade for 12 hours, and then inoculated in Jensen's media with 1% inoculum dose, and carried out static culture in a 96-well plate at 30 degrees centigrade for 24 hours. Cultures were discarded and the biofilm was washed with 0.8% physiological saline for three times. 100 μl Jensen's media containing 50 nM PsIG protein was added and the biofilm was treated for different times. Then, biomass of the treated biofilms may be tested by a crystal violet staining method, in which specific operation steps of the crystal violet staining method may refer to Example 2.

[4] = test system: biofilm of Pseudomonas syringae; assay: Inhibition of biofilm formation, crystal violet staining; assay type: cell-based; conditions: 50 nM PsIG
Pseudomonas aeruginosa [5] = assay: Inhibitory zone on LBNS plate with filter paper; assay type: cell-based; conditions: 50 nM PsIG; 24 hours at 37 degrees centigrade
Experimental: As shown in FIG. 9(a), four experimental groups may be set for buffer; 50 nM PsIG; tobramycin (TOB); combination of TOB and PsIG, respectively. Experiment 2:
As shown in FIG. 9(b), four experimental groups may be set for buffer; 50 nM PsIG; ciprofloxacin (CIP); combination of CIP and PsIG, respectively.

Caco2 = conditions: PsIG treatment 12 hours
Description: (§2) Cytotoxicity of a PsIG protein may be detected by human colon epithelial cell line Caco2 and HT-29.

HT-29 = conditions: PsIG treatment 12 hours
Description: as §2

PAO1 biofilm = assay: Clearance of PsIG-treated biofilm by macrophages, CFU count; assay type: cell-based, Pseudomonas aeruginosa; conditions: biofilm treated with PsIG 1 hour, then macrophages 2 hours; versus controls without PsIG
Experimental: The PAO1 biofilm cultured on glass coverslips for 24 hours was treated with PsIG and co-incubated with macrophages, and then scraped and resuspended in 1 ml of physiological saline to quantify colony formation unit (CFU). The mean and SD values of CFU obtained by three repeated experiments were shown in the figure and T test (*, P<0.01) was performed for different experimental groups.
The PAO1 biofilm cultured on glass coverslips for 24-hours may be treated with the PsIG protein for 1 hour, and then incubated with macrophages for 2 hours, and remaining biofilm may be scraped and resuspended in 1 ml of physiological saline for colony formation unit (CFU).

[6] = test system: biofilm of Pseudomonas aeruginosa on implants; assay: Mouse implant infection model; assay type: in vivo; conditions: mouse peritoneum, local treatment, 24 hours; 50 nM PsIG and/or 50 mg kg-1 tobramycin
Experimental: FIG. 12 illustrates a mouse implant infections model. PsIG improves host clearance of implant biofilms and show combinatory effect with Tob in eradication of implant biofilms in vivo. The horizontal dashed line represents a detection limit of the experiment, which is shown as mean (*P<0.01) of the biofilm counts in five mice.
Implants coated by the biofilm of Pseudomonas aeruginosa may be inserted into mouse peritoneum and the following treatments may be performed locally: 50 nM PsIG treatment alone; 50 mg kg-1 tobramycin treatment alone; the 50 nM PsIG and the 50 mg kg-1 tobramycin co-treatment. After culture in vivo for 24 hours, mice may be sacrificed so as to harvest the implants, and the implants may be removed out and counted on LB plates after homogenization. The number of Pseudomonas aeruginosa on the implants may be tabulated with a format of CFU/ml.

[7] = test system: L4-stage Caenorhabditis elegans; assay: Toxicity of PsIG-dispersed biofilm bacteria to C. elegans; assay type: in vivo; conditions: co-incubated 25 degrees centigrade, 48 hours; live/dead nematodes
Experimental: The experiment may be carried out by using C. elegans as a host model.
Two experimental groups may be set for Experimental group 1 and Experimental group 2, respectively.
Experiment group 1: the bacterial cells collected from a PsIG-treated bacterial biofilm (a biofilm of Pseudomonas aeruginosa) may be co-incubated with L4-stage Caenorhabditis elegans.
Experimental group 2: co-incubation the planktonic culture of Pseudomonas aeruginosa grown for 24 hours may be co-incubated L4-stage Caenorhabditis elegans.
Experimental group 1 and Experimental group 2 were placed in 96-well plates respectively and co-incubated at 25 degrees centigrade for 48 hours. […] Each group was repeated for three times, the results are expressed with a format of the mean value±SD value.

[8] = Degradation of PsI polysaccharide in vitro, immunoblotting; assay type: biochemical, Pseudomonas aeruginosa; conditions: 50 nM PsIG
Description: Preparation and purification of PsI polysaccharide may be carried out with reference to published document (Molecular Microbiology 2009; 73:622-638, titled Genetic and biochemical analyses of the Pseudomonas aeruginosa PsI exopolysaccharide reveal overlapping roles for polysaccharide synthesis enzymes in PsI and LPS production, written by Byrd M S, Sadovskaya I, Vinogradov E et al.)
The standard curve may be prepared according to the following method: PsI polysaccharide prepared by the above method may be diluted 10 times with gradient and the PsI polysaccharide may be detected by immunoblotting.
To Solution 1 (PBS phosphate buffer), PsI polysaccharide and 50 nM of the PsIG protein obtained in Example 16 may be added to obtain Reaction system 1, the concentration of PsI polysaccharide in reaction system 1 may be 4 mg/ml, and the concentration of PsIG protein may be 50 nM. The eight same reaction systems 1 may be incubated at 20 degrees centigrade, 25 degrees centigrade, 30 degrees centigrade, 37 degrees centigrade, 40 degrees centigrade, 45 degrees centigrade, 50 degrees centigrade and 55 degrees centigrade for one hour, respectively, and then remaining PsI polysaccharide may be detected with a PsI polysaccharide antibody (the PsI polysaccharide antibody may be obtained by using PsI polysaccharide as immunogen) by immunoblotting. […]

[9] = test system: mouse macrophages (RAW264.7)

O=C(O)c1cn(C2CC2)c2cc(N3CCNCC3)c(F)cc2c1=O [ciprofloxacin]
MIC values for bacteria dispersed from biofilms by PsIG compared with planktonic cells (Pseudomonas aeruginosa [1]): lower

NC[C@H]1O[C@H](O[C@H]2[C@H](O)[C@@H](O[C@H]3O[C@H](CO)[C@@H](O)[C@H](N)[C@H]3O)[C@H](N)C[C@@H]2N)[C@H](N)C[C@@H]1O [tobramycin]
MIC values for bacteria dispersed from biofilms by PsIG compared with planktonic cells (Pseudomonas aeruginosa [1]): lower

B1: PsIG protein: Protein from Pseudomonas aeruginosa PAO1, purified PsIG (31-442) of SEQ ID NO.: 2, expressed in E. coli, 47 kDa (protein, listed as Pseudomonas aeruginosa)
chain: EIQVLKAPRAVVWKDFLGVNAQFLWFSPERYNKQIDRLQDLGLEWVRLDLHWDRLETAEDQYQLASLDQLVKDLEARQLKSVFYLVGSARFITTAPFYSPFQDQYPPRDPEVFARRMAMLSQRYPSVAAWQVWNEPNLIGFWRPKADPEGYAKLLQASTIALRMVDPEKPVVSAGMAFFSEMPDGRTMFDALGHLGVESLGTIATYHPYTQLPEGNYPWNLDFVSHANQINRALRNAGVPAIWSTEWGWSAYKGPKELQDIIGVEGQADYVLRRLALMSALDYDRIFLFTLSDLDQRASVRDRDYGLLDLDANPKPVYLALQRFLKVTGPKLRPADPPVTEDLPDGSFSIGWTREDGRNVWLFWSARGGNVRLPKLKEATLHDPLSGKVTPLSGSDGLEVPVKSSLQMLVWE
inhibitory rate on biofilm formation ([2]; PsIG protein at 1 nM, static culture 30 degrees centigrade, 24 hours): 50% | inhibition of formation of the biofilm ([2]; concentration l0nm-50nm, static culture 24 hours): significantly inhibit | reduction of biomass of formed biofilm ([3]; 1 nM PsIG, treated 30 minutes, 24-hour biofilm): 50% | effect on biomass of formed biofilm ([3]; 1 nM PsIG, treated five minutes, 24-hour biofilm): no effect | reduction of biomass of formed biofilm ([3]; 50 nM PsIG, treated 10 minutes, 24-hour biofilm): 50% | effect on biomass of formed biofilm ([3]; 50 nM PsIG, treated 30 minutes, 24-hour biofilm): reduced to a level similar to the PsI polysaccharide-negative strain | effect on biomass of formed biofilm ([3]; 50 nM PsIG, treated five minutes, 24-hour biofilm): significantly reduced | effect on biomass of formed biofilm ([3]; 50 nM PsIG, treated more than 30 minutes): no more significant reduction | inhibitory effect on biofilm [4]: same inhibitory effects | inhibitory zone, PsIG alone (Pseudomonas aeruginosa [5]): does not produce inhibitory zone | effect on activity of colon epithelial cells (MTT) (Caco2): no effect | effect on activity of colon epithelial cells (MTT) (HT-29): no effect | number of remaining bacteria of the biofilm (PAO1 biofilm): least | number of bacteria on the implants [6]: ≈ 10^3 CFU/mL | toxicity of PsIG-dispersed biofilm bacteria versus planktonic bacteria [7]: no significant difference in toxicity | temperature of highest degradation rate of PsI polysaccharide ([8]; 4 mg/ml PsI, one hour): 45 degrees centigrade | reduction of amount of PsI polysaccharide compared with untreated control ([8]; 30 degrees centigrade, 1 hour): 75% | toxic effects on macrophages [9]: not shown any toxic effects
